{"source": "paper PMC9972320", "key": {"MSI1 RRM12": {"biological_target": "MSI1 RRM12 (human, UniProt O43347 20-191)", "sequence (O43347 20-191)": "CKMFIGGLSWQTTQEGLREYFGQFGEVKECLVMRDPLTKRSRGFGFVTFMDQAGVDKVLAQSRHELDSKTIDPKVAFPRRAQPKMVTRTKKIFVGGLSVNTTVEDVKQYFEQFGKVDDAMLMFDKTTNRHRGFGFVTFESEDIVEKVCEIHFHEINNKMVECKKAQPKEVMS", "assay": "ITC; 3 mM MgCl2; ITC: 20 mM HEPES pH 7.5, 150 mM NaCl, 3 mM MgCl2, 25 C; […]", "settings": "protein: recombinant, tags: GST tag (pGEX-6p-1) removed by PreScission"}, "MSI1 RRM12 F63A/F65A": {"biological_target": "MSI1 RRM12 F63A/F65A (human, UniProt O43347 20-191, F63A;F65A)", "sequence (O43347 20-191 F63A/F65A)": "as the sequence (O43347 20-191) above, with F44A, F46A counted along it", "assay": "ITC; not impaired; 3 mM MgCl2; ITC: 20 mM HEPES pH 7.5, 150 mM NaCl, 3 mM MgCl2, 25 C; 30 uM RNA in cell, 600 uM protein titrant", "settings": "protein: recombinant; tags: GST tag removed by PreScission; three-way junction with P4 and pseudoknots"}, "MSI1 RRM12 K21A/F23A": {"biological_target": "MSI1 RRM12 K21A/F23A (human, UniProt O43347 20-191, K21A;F23A)", "sequence (O43347 20-191 K21A/F23A)": "as the sequence (O43347 20-191) above, with K2A, F4A counted along it", "assay": "ITC; not impaired; 3 mM MgCl2; ITC: 20 mM HEPES pH 7.5, 150 mM NaCl, 3 mM MgCl2, 25 C; 30 uM RNA in cell, 600 uM protein titrant", "settings": "protein: recombinant; tags: GST tag removed by PreScission; three-way junction with P4 and pseudoknots"}}}
{"binder": "ZIKV xrRNA2 (structured_RNA) RNA: GAUAGUCAGGCCGAGAACGCCAUGGCACGGAAGAAGCCAUGCUGCCUGUGAGCCCCUCAGAGGACACUGAGU", "values": [{"measurement": "Kd", "setting": "MSI1 RRM12; three-way junction with P4 and pseudoknots", "result": "1900 ± 800", "unit": "nM"}, {"measurement": "binding result", "setting": "MSI1 RRM12 F63A/F65A", "result": "binds"}, {"measurement": "binding result", "setting": "MSI1 RRM12 K21A/F23A", "result": "binds"}]}
{"binder": "ZIKV xrRNA2 P2M/P4M (structured_RNA) RNA: GAUAGUCAGGCCCGAAAGGCCAUGGCACGGAAGAAGCCAUGCUGCCUGUGAGCCCCUCCCGAAAGGGAGU", "values": [{"measurement": "binding result", "setting": "MSI1 RRM12; folded", "result": "no binding"}]}
{"binder": "DENV4 xrRNA mutant (DxM) (structured_RNA) RNA: UGUAGUCAGGCCGAGAACGCCACGGUUUGAGCAAACCGUGCUGCCUGUAGCUCCGCCAAUAAUGGGAGGCG", "values": [{"measurement": "Kd", "setting": "MSI1 RRM12; folded", "result": "2540 ± 310", "unit": "nM"}]}
{"binder": "DENV4 xrRNA (structured_RNA) RNA: UGAAGUCAGGCCACUUGUGCCACGGUUUGAGCAAACCGUGCUGCCUGUAGCUCCGCCAAUAAUGGGAGGCG", "values": [{"measurement": "binding result", "setting": "MSI1 RRM12; folded", "result": "no binding"}]}
